Source: patent US20050042664A1 (AstraZeneca / MedImmune, published 2005)

molecular target: T1, human EphA2 (human, UniProt P29317 24-534, limits assumed); experiment: BIAcore; format not stated
T1 construct: Target of the BIAcore analysis as named in the text
T1 sequence (P29317 24-534 limits assumed): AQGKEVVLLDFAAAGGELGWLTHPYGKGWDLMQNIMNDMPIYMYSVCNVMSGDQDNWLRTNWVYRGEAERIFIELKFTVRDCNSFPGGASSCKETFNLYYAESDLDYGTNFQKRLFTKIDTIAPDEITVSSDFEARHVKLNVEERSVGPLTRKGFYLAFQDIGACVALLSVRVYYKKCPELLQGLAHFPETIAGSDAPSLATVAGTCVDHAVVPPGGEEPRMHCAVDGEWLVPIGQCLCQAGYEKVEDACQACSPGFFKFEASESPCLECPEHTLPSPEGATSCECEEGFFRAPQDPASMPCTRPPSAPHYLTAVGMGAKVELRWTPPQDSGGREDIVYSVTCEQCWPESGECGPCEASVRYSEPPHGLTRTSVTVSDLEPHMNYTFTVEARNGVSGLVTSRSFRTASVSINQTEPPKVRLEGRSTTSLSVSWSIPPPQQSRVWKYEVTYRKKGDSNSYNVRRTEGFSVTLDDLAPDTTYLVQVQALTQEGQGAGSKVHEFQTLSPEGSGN

| Kd | koff | kon | Binder |
| --- | --- | --- | --- |
| 0.7 nM | 3.76e-05 s⁻¹ | 53200 M⁻¹ s⁻¹ | Humanized version I of EP101 (hu IgG1) (antibody, V domains shown) VH: QMQLVQSGPEVKKPGTSVKVSCKASGFTFTDYSMNWVRQARGQRLEWLGFIRNKANDYTTEYSASVKGRVTITRDMSTSTAYMELSSLRSEDTAVYYCARYPRYHAMDSWGQGTSVTVSS VL: DIVMTQSPSSLSASVGDRVTIICRASQSISNNLHWYQQKPGKAPKLLIKYVFQSISGVPSRFSGSGSGTDFTFTISSLQPEDFATYYCQQSNSWPLTFGGGTKVEIK |
| 1.2 nM | 4.13e-05 s⁻¹ | 35600 M⁻¹ s⁻¹ | Humanized version II of EP101 (hu IgG1) (antibody, V domains shown) VH: QMQLVQSGPEVKKPGTSVKVSCKASGFTFTDYSMNWVRQARGQRLEWIGFIRNKANDYTTEYSASVKGRVTITRDMSTSTAYMELSSLRSEDTAVYYCARYPRYHAMDSWGQGTSVTVSS VL: DIQMTQSPSSLSASVGDRVTITCRASQSISNNLHWYQQKPGKAPKLLIKYVFQSISGVPSRFSGSGSGTDFTFTISSLQPEDFATYYCQQSNSWPLTFGGGTKVEIK |
| 1.3 nM | 7.62e-05 s⁻¹ | 60000 M⁻¹ s⁻¹ | Humanized version III of EP101 (hu IgG1) (antibody, V domains shown) VH: QMQLVQSGPEVKKPGTSVKVSCKASGFTFTDYSMNWVRQARGQRLEWIGFIRNKANDYTTEYSASVKGRVTITRDMSTSTAYMELSSLRSEDTAVYYCARYPRYHAMDSWGQGTSVTVSS VL: DIVMTQSPSSLSASVGDRVTIICRASQSISNNLHWYQQKPGKAPKLLIKYVFQSISGVPSRFSGSGSGTDFTFTISSLQPEDFATYYCQQSNSWPLTFGGGTKVEIK |
| 0.3 nM | 0.000101 s⁻¹ | 330000 M⁻¹ s⁻¹ | Mouse version of EP101 (mouse IgG) (antibody, V domains shown, Mouse IgG; also called anti-human EphA2 monoclonal antibody EP101; parental murine antibody) VH: EVKLVESGGGLVQPGGSLSLSCAASGFTFTDYSMNWVRQPPGKALEWLGFIRNKANDYTTEYSASVKGRFTISRDNSQSILYLQMNALRAEDSATYYCVRYPRYHAMDSWGQGTSVTVSS VL: DIVLTQSPATLSVTPGDSVNLSCRASQSISNNLHWYQQKSHESPRLLIKYVFQSISGIPSRFSGSGSGTDFTLSINSVETEDFGMYFCQQSNSWPLTFGAGTKLELK |
| 0.3 nM | 8.04e-05 s⁻¹ | 242000 M⁻¹ s⁻¹ | Chimaeric version of EP101 (hu IgG1) (antibody, V domains shown, Chimeric Fab cloned and expressed as a full length human IgG1; also called chimeric version of anti-EphA2 antibody) VH: EVKLVESGGGLVQPGGSLSLSCAASGFTFTDYSMNWVRQPPGKALEWLGFIRNKANDYTTEYSASVKGRFTISRDNSQSILYLQMNALRAEDSATYYCVRYPRYHAMDSWGQGTSVTVSS VL: DIVLTQSPATLSVTPGDSVNLSCRASQSISNNLHWYQQKSHESPRLLIKYVFQSISGIPSRFSGSGSGTDFTLSINSVETEDFGMYFCQQSNSWPLTFGAGTKLELK |
